Key:
[1] = target: T1, recombinant double-tagged VWF-A2 peptide
T1 chain: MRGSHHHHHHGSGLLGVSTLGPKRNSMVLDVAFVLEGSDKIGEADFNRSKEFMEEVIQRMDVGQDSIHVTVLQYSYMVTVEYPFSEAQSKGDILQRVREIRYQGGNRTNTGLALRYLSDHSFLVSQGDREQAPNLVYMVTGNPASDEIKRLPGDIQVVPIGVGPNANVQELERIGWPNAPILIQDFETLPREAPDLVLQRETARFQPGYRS

[2] = target: T2, recombinant single-tagged VWF-A2 peptide
T2 chain: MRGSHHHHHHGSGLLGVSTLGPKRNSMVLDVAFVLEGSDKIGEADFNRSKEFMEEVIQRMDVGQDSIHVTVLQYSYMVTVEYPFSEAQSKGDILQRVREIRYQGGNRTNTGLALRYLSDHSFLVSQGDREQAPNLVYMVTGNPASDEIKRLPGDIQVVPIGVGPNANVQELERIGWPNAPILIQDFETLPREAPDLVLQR

B1: ADAMTS-13 (protein)
chain: AAGGILHLELLVAVGPDVFQAHQEDTERYVLTNLNIGAELLRDPSLGAQFRVHLVKMVILTEPEGAPNITANLTSSLLSVCGWSQTINPEDDTDPGHADLVLYITRFDLELPDGNRQVRGVTQLGGACSPTWSCLITEDTGFDLGVTIAHEIGHSFGLEHDGAPGSGCGPSGHVMASDGAAPRAGLAWSPCSRRQLLSLLSAGRARCVWDPPRPQPGSAGHPPDAQPGLYYSANEQCRVAFGPKAVACTFAREHLDMCQALSCHTDPLDQSSCSRLLVPLLDGTECGVEKWCSKGRCRSLVELTPIAAVHGRWSSWGPRSPCSRSCGGGVVTRRRQCNNPRPAFGGRACVGADLQAEMCNTQACEKTQLEFMSQQCARTDGQPLRSSPGGASFYHWGAAVPHSQGDALCRHMCRAIGESFIMKRGDSFLDGTRCMPSGPREDGTLSLCVSGSCRTFGCDGRMDSQQVWDRCQVCGGDNSTCSPRKGSFTAGRAREYVTFLTVTPNLTSVYIANHRPLFTHLAVRIGGRYVVAGKMSISPNTTYPSLLEDGRVEYRVALTEDRLPRLEEIRIWGPLQEDADIQVYRRYGEEYGNLTRPDITFTYFQPKPRQAWVWAAVRGPCSVSCGAGLRWVNYSCLDQARKELVETVQCQGSQQPPAWPEACVLEPCPPYWAVGDFGPCSASCGGGLRERPVRCVEAQGSLLKTLPPARCRAGAQQPAVALETCNPQPCPARWEVSEPSSCTSAGGAGLALENETCVPGADGLEAPVTEGPGSVDEKLPAPEPCVGMSCPPGWGHLDATSAGEKAPSPWGSIRTGAQAAHVWTPAAGSCSVSCGRGLMELRFLCMDSALRVPVQEELCGLASKPGSRREVCQAVPCPARWQYKLAACSVSCGRGVVRRILYCARAHGEDDGEEILLDTQCQGLPRPEPQEACSLEPCPPRWKVMSLGPCSASCGLGTARRSVACVQLDQGQDVEVDEAACAALVRPEASVPCLIADCTYRWHVGTWMECSVSCGDGIQRRRDTCLGPQAQAPVPADFCQHLPKPVTVRGCWAGPCVGQGTPSLVPHEEAAAPGRTTATPAGASLEWSQARGLLFSPAPQPRRLLPGPQENSVQSSACGRQHLEPTGTIDMRGPGQADCAVAIGRPLGEVVTLRVLESSLNCSAGDMLLLWGRLTWRKMCRKLLDMTFSSKTNTLVVRQRCGRPGGGVLLRYGSQLAPETFYRECDMQLFGPWGEIVSPSLSPATSNAGGCRLFINVAPHARIAIHALATNMGAGTEGANASYILIRDTHSLRTTAFHGQQVLYWESESSQAEMEFSEGFLKAQASLRGQYWTLQSWVPEMQDPQSWKGKEGT
cleavage of double-tagged VWF-A2 peptide, ELISA (loss of Tag-100 signal) [1]: the specific cleavage activity by ADAMTS-13 on the VWF-A2 peptide was also demonstrated using three different dilutions of partially isolated ADAMTS-13 (275 µg/mL of total protein) (FIG. 5B) | cleavage of double-tagged VWF-A2 peptide, immunoblot [1]: The cleavage of the double-tagged VWF-A2 peptide by ADAMTS-13 was efficiently detected by immunoblotting | cleavage of VWF-A2 protein, immunoblot (16 kDa band) [2]: Healthy plasma (FIG. 2, lane 1), and partially isolated ADAMTS-13 (FIG. 2, lane 3) produced the expected band of 16 kDa | cleavage of recombinant single-tagged VWF-A2 (16 kDa band) [2]: After one hour incubation, proteolysis by plasma from a healthy individual and the partially isolated enzyme produced the expected 16 kD band corresponding to the sequence 1481-1605 of SEQ ID NO:8 plus the 12 amino acid residues from the His-tag
